Results on 2 substances are retold here after IntAct's records for PubMed 8670882.

Test [1] addresses T1, ste20_yeast STE20 (UniProt Q03497).
T1 sequence: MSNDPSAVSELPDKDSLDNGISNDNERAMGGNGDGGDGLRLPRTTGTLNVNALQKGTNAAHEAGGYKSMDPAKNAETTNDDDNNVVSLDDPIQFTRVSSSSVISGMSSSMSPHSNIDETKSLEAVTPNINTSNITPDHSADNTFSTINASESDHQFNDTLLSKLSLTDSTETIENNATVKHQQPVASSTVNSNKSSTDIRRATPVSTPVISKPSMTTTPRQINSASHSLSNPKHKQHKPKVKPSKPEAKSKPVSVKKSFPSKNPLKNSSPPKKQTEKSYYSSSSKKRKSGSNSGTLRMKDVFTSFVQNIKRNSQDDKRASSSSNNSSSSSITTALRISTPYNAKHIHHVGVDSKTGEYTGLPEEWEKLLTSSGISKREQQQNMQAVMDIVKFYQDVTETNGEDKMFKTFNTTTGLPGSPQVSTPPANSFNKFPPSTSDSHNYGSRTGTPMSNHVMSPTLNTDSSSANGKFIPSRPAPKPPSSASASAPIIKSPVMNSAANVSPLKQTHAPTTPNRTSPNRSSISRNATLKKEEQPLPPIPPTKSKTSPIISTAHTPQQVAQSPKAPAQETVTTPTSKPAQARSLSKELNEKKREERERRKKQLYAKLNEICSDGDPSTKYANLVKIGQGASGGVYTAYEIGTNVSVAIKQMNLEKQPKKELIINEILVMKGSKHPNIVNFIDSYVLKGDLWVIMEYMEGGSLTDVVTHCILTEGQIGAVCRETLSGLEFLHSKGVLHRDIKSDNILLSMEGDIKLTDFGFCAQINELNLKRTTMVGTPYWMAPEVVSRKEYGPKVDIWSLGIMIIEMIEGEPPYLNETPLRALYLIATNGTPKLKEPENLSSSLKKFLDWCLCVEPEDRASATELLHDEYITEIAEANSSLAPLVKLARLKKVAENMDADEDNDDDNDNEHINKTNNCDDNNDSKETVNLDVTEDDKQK

In test [2] the target is T2, arfp2_human ARFIP2 (UniProt P53365).
T2 sequence: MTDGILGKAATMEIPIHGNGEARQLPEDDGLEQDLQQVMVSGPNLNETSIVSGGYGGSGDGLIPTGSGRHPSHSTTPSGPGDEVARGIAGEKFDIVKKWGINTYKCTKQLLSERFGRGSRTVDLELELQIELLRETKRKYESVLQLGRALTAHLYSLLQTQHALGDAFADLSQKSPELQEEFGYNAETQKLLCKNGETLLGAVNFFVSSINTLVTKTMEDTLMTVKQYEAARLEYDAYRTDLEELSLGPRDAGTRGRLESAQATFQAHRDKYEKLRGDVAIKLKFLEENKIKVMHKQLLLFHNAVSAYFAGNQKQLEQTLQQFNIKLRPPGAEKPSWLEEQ

Take “Ras-related C3 botulinum toxin substrate 1 (Homo sapiens) (from UniProt P63000) G12V”: the “effect of a mutation on the interaction” value in test [1] was “increasing interaction”.

Take “Ras-related C3 botulinum toxin substrate 1 (Homo sapiens) (from UniProt P63000) T35A”: in test [2], the “effect of a mutation on the interaction” value is listed as “decreasing interaction”.
